Experimental data from the DeepSol protein solubility set.

assay: soluble on expression in E. coli; label from the status in PepcDB or PDB records

Row | Sequence | soluble on expression in E. coli
1 | MIELPVVPSASDRKSKPDWLRVKLPIGKEYTKLRALVDEHKLHTICQSGNCPNMGECWGAGTATFMILGNVCTRSCSFCAVATGRPTEYDIDEPKRVAEAVRLMNVKHCVITSVNRDELKDKGAEVWYQTVVRVKEESPQTTIETLIPDVKSDWASLERMISGGQEVVSHNMETVERLYRRVRPQAKYSRSLEEIQRIKAFGKRTKSGIMLGLGETKDEVLKAMDDLVAHGLDVLTLGQYLQPTKMHLEVAEFIHPDQFAEYKEIGLSKGLNYVESGPLVRSSYHAEKHI | not soluble
2 | MNTKPQLTLLKVQASYRGDPTTLFHQLCGARPATLLLESAEINDKQNLQSLLVIDSALRITALGHTVSVQALTANGPALLPLLDEALPPEVRNQARPNGRELTFPAIDAVQDEDARLRSLSVFDALRTILTLVDSPADEREAVMLGGLFAYDLVAGFENLPALRQDQRCPDFCFYLAETLLVLDHQRGSARLQASVFSEQASEAQRLQHRLEQLQAELQQPPQPIPHQKLENMQLSCNQSDEEYGAVVSELQEAIRQGEIFQVVPSRRFSLPCPAPLGPYQTLKDNNPSPYMFFMQDDDFTLFGASPESALKYDAGNRQIEIYPIAGTRPRGRRADGSLDLDLDSRIELEMRTDHKELAEHLMLVDLARNDLARICQAGSRYVADLTKVDRYSFVMHLVSRVVGTLRADLDVLHAYQACMNMGTLSGAPKVRAMQLIAALRSTRRGSYGGRVGYFTAVRNLDTCIVIRSAYVEDGHRTVQAGAGVVQDSIPEREADETRNKARAVLRAIATAHHAKEVF | soluble
3 | MSLITDLFKRRIHQMEEKKKKNIGFNIIKSDPTDGHGGFGGGSLSLDNVSPVFVDVEAGDAHVDIGAMHARSTVEKGIKFLTNQEDVPNGKPYWLVWVTIDRKQEGPYYAGVTACFMTVDREIRRGYKLLPEHVNRLDKSIKRHIIVDHMDDKSKGILADFLKNHDMGMWERAEDQLKKDLASSEGHHHHHH | soluble
4 | MNPLAQKLNDEIKQSSPEVLDMMSQLGKDMFYPKGILSQSAEAKRTTYNATIGMATKKEGKMYANSLNQMFNDLTPDEIFPYAPPQGVEELRDLWQKKMLKENPDLKSKSISRPIVTNALTHGLSLVADLFVDTDDTVLLPTHNWGNYKLVFSTRHGAHIDTYSIFDNSGHFTTSELVKTLKEYKKDKVIIILNYPNNPTGYTPNKEEVNTIVNAIEELANKGTKVVTVVDDAYYGLFYEEVYQQSIFTALTQVKSSNLLPVRLDGATKEFFSWGFRVGFMTFGIDHETLKNALEAKVKGLIRSNISSSPLPSQSAIKHVLKHHEQFDKEIDQNINILKERYEVTKQVVYDNKYAKYWQAYDFNSGYFMSLKLNQVDPEELREHLINNYSIGIIALNSTDIRIAFSCVEKEDIPYVFESIANAIDDIK | not soluble
5 | MSLKDTFSVLLIEDSNADYRLIQEYLGESQSPSFQISRSTDFSAGLSFITNESPDLVMLDLSLPDRTGLEALSEIKRKFPQIPVIICSGAEDKDITVNALQIGAQDYVYKGKFDSYSLSRSLVFAYERNRLALELEKKSVFEQESEERYRLFFQYNPHPAFLFEHDSLEILEINRAVLEKYGYEEKDLIGKSILQIFELSDFDKVKQEIIFFQFGANQASSFVHKKKNGEKLIADTTVYKFRYQNQILDLAVVTDITEMVRNRESILATLAEKDALIQEIHHRVKNNMQIMISLLNLQADNAMSRNLTAKELYNLLKDTESRVFSMSLVHNELYKSNDLSHVDFHSYLNMLLENLWNLYGVGLKIKHLVEAQGLVLSMNIAISLGLIVCELVTNAIKHAFPDGYEGLLKIFARCELGSTIVTIEDNGKGIPKEMISKNHETLGLQLVNILTKQIQGKLHLEVLDPGTKFEIRFPEQKGTVQRKEGHHHHHH | not soluble
6 | NEVDDMDTSDTQWGWFYLAECGKWHMFQPDTNSQCSVSSEDIEKSFKTNPCGSISFTTSKFSYKIDFAEMKQMNLTTGKQRLIKRAPFS | soluble
7 | GPGSMSAGGRETAPMNLLRRRNKDEINGDVNAAADRFRNRFEKATLEERKAATTTMVNEYYDLVTDFYEYGWGQNFHFAPRYAGETFFESLARHEYFLAARGGFMEGDHIVDVGCGVGGPARNIVRLTRCNVTGVNNNDYQISRARRHDALAGMSCKIDYVKTDFCNMSLADNTFDGAYAIEATCHAKDKVKCYSEVFRVIKPGTCFVLYEWCMTDKYNPNDEYHRTIKHRIELGDGLPEMETCKQVIEYMKEAGFVVEEAIDVISQFESSPIKSIPWYQPLVGDYSSLQGLRSTPIGRILTNIMCRVLEFVHLAPKGTYKATEVLEEAAESLVVGGQLGIFTPSFYIRARKPSKQA | not soluble
8 | MAQSKHGLTKEMTMKYRMEGCVDGHKFVITGEGIGYPFKGKQAINLCVVEGGPLPFAEDILSAAFNYGNRVFTEYPQDIVDYFKNSCPAGYTWDRSFLFEDGAVCICNADITVSVEENCMYHESKFYGVNFPADGPVMKKMTDNWEPSCEKIIPVPKQGILKGDVSMYLLLKDGGRLRCQFDTVYKAKSVPRKMPDWHFIQHKLTREDRSDAKNQKWHLTEHAIASGSALP | soluble
9 | MGHHHHHHSHNSARADVYPDGFKGHMLTKSEKNQLLAIASSLFVAFQLRAQHFQGNSRMPVIKPDIANWELSVKLHDKVHTVVASNNGSVFLVEVDGSKLNVTSTWNLFALIVCQR | not soluble
10 | MDKQHFKLWYFQFRGRAEPIRLLLTCAGVKFEDYQFTMDQWPTIKPTLPGGRVPLLDVTGPDGKLRRYQESMAIARLLARQFKMMGETDEEYYLIERIIGECEDLYREVYTIFRTPQGEKEAKIKEFKENNGPTLLKLVSESLESSGGKHVAGNRITLGDLFLFTTLTHVMETVPGFLEQKFPKLHEFHKSLPTSCSRLSEYLKKRAKTPF | soluble
11 | MSLGINRIDHAAVQVGDLGKALAWYEDVLGLTVLSRDDTTVHLACRGEAADITLVKGRQSLENFAFGVDDQEDLDRVESILKQEGVASERLNGDSRPGEGATLKFHLPSGHELRLCTGGAERRAGISDFDARGSHVPCDMDHINLLGAVDPSVMRDFLMMIGFKSSLNISVGGQLAGVWLRGSAYDHDIAYMRAVRPGDRLHHVAFAVEDGNHYFRLSDRLMDTGHRWEFGPGRHNGGLGKSTGFGTNNYAYAFDPFGNRNEFSSGMEQFSDDTPPLDCHIAPEQLTEVMNGWGYEMAETFMTVGSEGHHHHHH | not soluble
12 | MNNMKKYLSLCIMLLCLCSTVMAQQEKVVVKGVVTDEAKEPLIGVNVTVKDMPGLGSITDMNGHYSITMEPYRQLVFTYIGYESKEVMVKEQRTINVVMKESVTRAVDEVVITGTGVQRKLTQTGAITTVDVGELKRNPSSSIVNALAGNVPGIMARQTSGQPGKNISEFWIRGISTFGANSSAYVLVDGFERSMDEINIEDIETFTVLKDASATAIYGSKGANGVVLITTKRGKAGKIKIDAKVETTYNTRTVLQSSKTDLLMPA | not soluble
13 | EVQLLEQSGAEVKKPGSSVQVSCKASGGTFSMYGFNWVRQAPGHGLEWMGGIIPIFGTSNYAQKFRGRVTFTADQATSTAYMELTNLRSDDTAVYYCARDFGPDWEDGDSYDGSGRGFFDFWGQGTLVTVSSASTKGPSVFPLAPSSKSTSGGTAALGCLVKDYFPEPVTVSWNSGALTSGVHTFPAVLQSSGLYSLSSVVTVPSSSLGTQTYICNVNHKPSNTKVDKKVEPKSCDKTS | soluble
14 | MSLNESEEKNSNSTYSFFFKNLSVTGFYEENCLFMTVKELFDNSIDALCNNKGDENIDEEGQGTQEKKIEIEIKEYGINSSFYEIICRDNGEGIEVKDLEKISEMFLTSKEKCITSGKFGIGLKTILLYSFKTAYGFLHIKIKVKKNKIWDFILVLDKNLNHTFVQNFKEYIDDKWEWTIEISVILKINNNYISDKKIHSYIKLFLLWKKNITVKYIHNPNGEQSIYTYSSHSDTSEENILSMLANNSINMIFKKDFLTSYNYDVNMYVNVRKSEKIIPYEHGHNIGFLFLIRYVNSMPLLRTSSSDCSITVDFRNFLKYYGPQFGIELPTIESRDEMILEELALPSCFDDLNKVANIFPVKRSEEGHHHHHH | soluble
15 | KEYSHLPIKGNESNLIDTLEDAISLRVPKNRPFAVALSGGLDSSIIAYILEARLSENAHYYVVGERYPDSVLALLEHLNICLSRVHLIKPPPADELLKLITKTCHITKSYNPSIISNGLATLLLCKAVHQDGIRVMLSGEGADEFFCGYQGMYNGRNDPTEMRANLIKDLHFTELRRLDLISASFSVEARCPFLDQRVTQIAMMLDVKNLCDIPMNIGKTLLRDTFKHLLPHSIINAPKESFDITSGLQKLVIDELQKEFKSERVALRTIFEKTLANY | not soluble
16 | MSLHEAADGILETHVTWKDIEEAMQLSFGTYATFGDNMKATNISDLKGFQSIIALIEPDWIDVEKGKDLPKKFAVKISTQLALAVLSKIMKLGGENGFSEEKLNELGKLIRDGHNREVATYKLLEKMNHPDIPYTKVYGLKGYSDANDLKGFMIMEFIPNVRSIPMYEAILADDLISLVRGIATFAALGETLSEEEKAFAGGPEYLESMFEEVFTDEQLERIY | not soluble
17 | MEEAKNPWLTGNLVEEANSQGIIQNRSIFNLFANTNIYIFFRHWTTIYERLLEIKQMNERVTKEINTRSTVTFAKDLDLLSSQLSEMGLDFVGEDAYKQVLRLSRRLINGDLEHQWFEESLRQAYNNKAFKLYTIDKVTQSLVKHAHTLMTDA | not soluble
18 | MGSDKIHHHHHHMESVGDVLKRQPSRFYYQDLVQKIMKDPDVAAFIQQESLTPKELNRSISKFNQYITERDKFLRGDTDYIAKGYKPILVKNHGYADVSYEETPELIAAEKEAAIKNRLKLINLPASLKKASLAQVDLDDLGRLPVFEKLLAFVEQYPAIRKGLYLYGDFGVGKSFMVAALAHDLSEKRGVSSTLLHYPSFVIDVKNAISDGNVKTLVDEIKLSEVLILDDIGAEQSTVWVRDEILQVILQYRMQENLPTFFTSNFNFEDLEKHFAKVKHGNDETWEARRVMERIRYLAEETRLEGVNRR | not soluble
19 | MGSDKIHHHHHHMKIGIIGAGRVGCSIGKYLRTKDIELAGYYDVDSAAAKEAAEFTRTESFDSLKQLADQSQIIFITTPDSFIIPVWEQLKELSLTNQIICHCSGALSSDSFSGRESMSVSCCSIHPMLPFSNKFSSYEQLNKAFFTVEGQDAAVEAISGLFCSIGNEVCRIDGAKKAKYHAAASILSNQVIAVLDMGYSLLEDCGFTRAEAVRATGQLVMRNIENVLEAGCDGALTGPIERNDIETVKKHIACMQNDDSDDVRLYKMLGTKLVNIAEKKNPDKDYTQMMELLRG | not soluble
20 | MKHHHHHHPMSGLVPRGSAMGEPLASASKFSSIVSNDIDMNFRSFKFWVHNDNLMEVKTRILRHLPVLVYANVPSENDDLVNRFESDISNNDEIVGSSSSTSSVEHGLGARSFDPLINTLYFDNEHFELYNDKLLKLNSAPTLRLRWTGQLSDKPDIFLEKKTLIEDEATGKSEFDLTKLQLKQKFINGFIFEGDKKFKEQTLKKLKESGTAGRDLERLEEDFSEIQNFIIKNELQPVFRTVYTRTAFQIPGDDKIRVTIDSNIVFIKEDSFDRERPIRDPNTWHRTDIDANVANPLKFLRGGEYAKFPYSVMEIKVKSSLDSSMSASSMISNVKLPKKHGQWLNDLTNSHLVKEIPKFSIFVQGVASLYGDDEKLDILPFWLPDLETDIRQ | soluble
21 | MGSDKIHHHHHHMKESMSITSSTYASALLTLPWGTPLEQWPDNLIAALPRGISRHIVRFVGINRGIVAVKEIGARTAHHEYKMLRELQRLGAPSVRPVAVITGRHPAEEDYGELTAALVTEHLEFSLPYREIFSRHLTVVESEKLIRALSVLLVRMHLLNFYWGDVSLSNTLFRRDAETYSAYLVDAETGEFQPNLSESRRLYDVDIARVNIIGELMDLQAGECLDKSIDVIALGGLVESSYLELWTELTAEESVDASEYWRLSERIDRLNQLGFDVGELKVTKDDSRQVVRIRPVVVDPGHYRAELLSLTGLSVEEHQAQRLLGSIQAYQAVECGPHVGLTQAAHLWMTNEYEPTIAAVPVEMLDKLEPAQIFHEIVDHRWFLAQERGGAVTLPEATASYLESVLPARRDEARLLSTNPSDEDLS | not soluble
